# Results taken from the supplement of paper PMC9170038.
# Tested on: K4 kissing-loop RNA reporter
# Test: apparent KD of K4 kissing-loop reporter; higher = weaker reporter binding
# Settings: Eterna round: R107
# Procedure: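 RNA-MaP round R107: designed RNA switches with theophylline, tryptophan, arginine or FMN aptamers are transcribed on-chip within common flanks. They are titrated with a labelled K4 kissing-loop RNA reporter in RNA-MaP buffer (100 mM Tris pH 7.5, 80 mM KCl, 4 mM MgCl2), without ligand or with the indicated ligand. Median apparent KD per design.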
# [1] = input ligand: theophylline 20 uM
# [2] = input ligand: tryptophan 2.4 mM
# 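Further: bound reporter read as fluorescence of individual clusters on recovered sequencing chips by microscopy, with normalized cluster intensities fitted with a binding model.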
Sequence,apparent KD of K4 kissing-loop reporter (input ligand: FMN 200 uM),apparent KD of K4 kissing-loop reporter (input ligand: arginine 13.2 mM),apparent KD of K4 kissing-loop reporter (input ligand: none),apparent KD of K4 kissing-loop reporter [1],apparent KD of K4 kissing-loop reporter [2]
UCCUAGGCUCGAAAGAGCCUAGGAUUAACUCAGGAUAUCCGGAAACGGAGAAGGGAGUAACUAGUGAUGUUAGGGAUUCCCUAUU,208 nM,94 nM,109 nM,87.9 nM,92.7 nM
UCCUAGGCUCGAAAGAGCCUAGGAUUUACUCAGGAUAUCCGGAAACGGAGAAGGGAGUAACUAGUGAUGUUAGGGAUUCCCUAUU,552 nM,113 nM,123 nM,131 nM,125 nM
UCCUAGGCUCGAAAGAGCCUAGGUAAGACUCAGGAUAUCUGGAAACAGAGAAGGGAGCUACUAGUGAUGUUAGGAAUUCCCUAAG,126 nM,97 nM,124 nM,119 nM,106 nM
UCCUGCAAUCGACCACGAAAGUGGAUCGAUACCAGAGUCGAAAGACUCCCUUGGCAGCGAGUGAUGUUCGAAGCAGGUAAAUAAA [#SwitchBubble 22 #K4Late],520 nM,383 nM,453 nM,464 nM,383 nM
UCCUGCAAUCUGCCACGAAAGUGGAUUGAUACCAGAGUCGAAAGACUCCCUUGGCAGCGAGUGAUGUUCGACGCAGGUAAAUAAA [MatMod 5 - Jieux - Exclusion - Theophylline A],142 nM,224 nM,178 nM,234 nM,135 nM
UCCUGCAAUGGACCACGAAAGUGGAUCGAUACCAGAGUCGAAAGACUCCCUUGGCAGCGAGUGAUGUUCGAAGCAGGUAAAUAAA [#SwitchBubble 21 #K4Late],492 nM,483 nM,478 nM,410 nM,358 nM
UCGAGUUGACGAAGAGUCAACUCGUGUGAUACCAGUGACGAAAGUCACCCUUGGCAGCACUAUGCUAGUGAUGUUGGUAUUUAAG [#08 K4 Theophylline A Same State],190 nM,92.7 nM,179 nM,105 nM,127 nM
UCUAACGUUGAGGCGGCAGCGGGCCCAUCUAAGGAUAUCGGUUUACCGAGAAGGUAGUUGGACGAGAGUGAUGUUCUAUUGAGAG [theeternabot_sameState_KL_FMN_A_18],207 nM,211 nM,254 nM,642 nM,159 nM
UCUGGAGGAUAUGAUACCAGCAGUGAGAGAGAGGAAGUAUAGUGAUGUUAUAUGAGAGAAUGCCCUUGGCAGCGUGUGUAGUGGG [SSTheophylB.L],175 nM,137 nM,135 nM,151 nM,86.6 nM
UCUGGUAUAUCUGAUACCAGAGUAUAGUAUCAAUUGCAUAUGGAGUGAUGUUCCAUAUAACUCCCUUGGCAGCAGAUCUAUCUCU [Same State Theophylline B GF 25],292 nM,308 nM,325 nM,386 nM,288 nM
UGACAUUGCUCAGAUACCAGACAAGAGGAUCACCCUUGUGCCAAACGUACAAUAAUAAUUGUCCCUUGGCAGCUGAGCAAUGUCU [TheoBX 14],73.2 nM,25.4 nM,16.3 nM,80.7 nM,51.6 nM
UGACAUUGCUCAGAUACCAGACUUGAGGAACACCCAAGUGCCAAACGUACAAUAAUAAAAGUCCCUUGGCAGCUGAGCAAUGUCU [TheoBX 14],111 nM,53.6 nM,82.1 nM,62.8 nM,59.8 nM
UGACUGGACUGAAGGAGCGAGCGAGACAAAGUCUCGAAAAUUCAGUGAUGUUGAAAUAUAACUCAGGUAGGUCGCAGUCUAGUCU [ArgBS 4 #SwitchBubble #StaticStem],328 nM,303 nM,377 nM,313 nM,304 nM
UGACUGGACUGAAGGAGCGCUAAACUCCUAGUGAUGUUAGGAAAACGAGACAAAGUCUCGAAGCAGGUAGGUCGCAGUCUAGUCU,172 nM,147 nM,177 nM,162 nM,169 nM
UGACUGGACUGAAGGAGCGCUAAACUCCUAGUGAUGUUAGGAAAUACGAGACAAAGUCUCGGGCAGGUAGGUCGCAGUCUAGUCU [ArgBS 19 #SwitchBubble #StaticStem],122 nM,118 nM,132 nM,128 nM,101 nM
UGACUGGACUGAAGGAGCGCUAAACUCCUAGUGAUGUUAGGAUAACGAGACAAAGUCUCGAAGCAGGUAGGUCGCAGUCUAGUCU,149 nM,110 nM,117 nM,133 nM,128 nM
UGACUGGACUGAAGGAGCGCUGAACUCCUAGUGAUGUUAGGACAACGAGACAAAGUCUCGAAGCAGGUAGGUCGCAGUCUAGUCU,154 nM,129 nM,154 nM,152 nM,184 nM
UGACUGGACUGAAGGAGCGCUGAACUCCUAGUGAUGUUAGGACAACGAGACAAAGUCUCGCGGCAGGUAGGUCGCAGUCUAGUCU,159 nM,119 nM,121 nM,145 nM,131 nM
UGACUGGACUGAAGGAGCGCUUAACUCCUAGUGAUGUUAGGACAACGAGACAAAGUCUCGAAGCAGGUAGGUCGCAGUCUAGUCU,217 nM,155 nM,204 nM,198 nM,199 nM
UGACUGGACUGAAGGAGCGGGCGAGACAAAGUCUCGAACUCGUAGUGAUGUUACGAAAUAACCCAGGUAGGUCGCAGUCUAGUCU,77.8 nM,62 nM,74.9 nM,67.2 nM,74.9 nM
UGACUGGACUGAAGGAGCGUUGAAGGAGCGUAAGGAGUGAUGUUCCAUACAGGUAGGUCGCAGCAGGUAGGUCGCAGUCUAGUCU [ArgBS 26 #DoubleAptamer #SwitchBubble],204 nM,245 nM,229 nM,171 nM,281 nM

Sequence,apparent KD of K4 kissing-loop reporter (input ligand: FMN 200 uM),apparent KD of K4 kissing-loop reporter (input ligand: arginine 13.2 mM),apparent KD of K4 kissing-loop reporter (input ligand: none),apparent KD of K4 kissing-loop reporter [1],apparent KD of K4 kissing-loop reporter [2]
UGACUGGACUGAAGGAGCGUUGAAGGAGCGUAGGCAGUGAUGUUGCCUACAGGUAGGUCGCAGCAGGUAGGUCGCAGUCUAGUCU [ArgBS 27 #DoubleAptamer #SwitchBubble],132 nM,92.1 nM,108 nM,66.1 nM,107 nM
UGACUGGAUGGAAGGAGCGCUAAACUCCUAGUGAUGUUAGGGACACGAGACAAAGUCUUGAGGCAGGUAGGUCGCCAUCUAGUCU [FiskerMod 8 - Jieux - Same State - Arginine B],379 nM,211 nM,251 nM,250 nM,241 nM
UGACUGGAUGGAAGGAGCGCUAAACUCCUAGUGAUGUUAGGGAUAUGAGGCAAAGCCUCGAGGCAGGUAGGUCGCCAUCUAGUCU [FiskerMod 19 - Jieux - Same State - Arginine B],138 nM,114 nM,135 nM,142 nM,122 nM
UGACUGGAUUGAAGGAGCGCUAAACUCCUAGUGAUGUUAGGGAAACAAGACAAAGUCUUGAGGCAGGUAGGUCGCAAUCUAGUCU [FiskerMod 4 - Jieux - Same State - Arginine B],182 nM,149 nM,173 nM,234 nM,175 nM
UGAGGAGAUUAUGAUACCAGCAGAGAGAGAGAGGAAGUAUAGUGAUGUUAUAUGAGAUAAUGCCCUUGGCAGCAUAAGAAGAAGG [#20 K4 Theophylline B Same State],182 nM,133 nM,148 nM,147 nM,140 nM
UGAUACCAGACGGCCGCCACUAGGACCGGGAGUGAUGUUCCCAAUUUAAAAUGCUCGGCCGCCACUAGGACCGGGUCUGGUAUCU [TrypBX 27 #DoubleAptamer #SwitchBubble],173 nM,207 nM,198 nM,305 nM,109 nM
UGAUACCAGACGGCCGCCACUCCCGUAAGUCAAAGACUUACGAAGAGAGUUGUCCAGUGAUGUUGGAGGACCGGGUCUGGUAUCU [FiskerMod 13 - Jieux - Exclusion - Tryptophan B],230 nM,208 nM,207 nM,202 nM,260 nM
UGAUACCAGACGGCCGCCACUCCCGUAAGUCAAAGACUUACGAAGAGGGUUUUUUAGUGAUGUUGGAGGACCGGGUCUGGUAUCU [FiskerMod 18 - Jieux - Exclusion - Tryptophan B],618 nM,256 nM,618 nM,653 nM,2320 nM
UGAUACCAGACGGCCGCCACUCCUGCAGUCAAAGACUGCAAGGAAAUAUUCGUCCAGUGAUGUUGGAGGACCGGGUCUGGUAUCU [TrypBX 9 #SwitchBubble #Palindromic #StaticStem],921 nM,687 nM,820 nM,670 nM,1060 nM
UGAUACCAGACGGCCGCCACUUCUGCAAGUCAAAGACUUGCUAAGGGAAUCGUCCAGUGAUGUUGGAGGACCGGGUCUGGUAUCU [FiskerMod 2 - Jieux - Exclusion - Tryptophan B],1050 nM,823 nM,1200 nM,999 nM,1050 nM
UGAUACCAGACUGAUACCAGCAGUGAUGUUGCUGAAAAUAAUAAAUGAGUCAAAGACUCGGGCCCUUGGCAGCAGUCUGGUAUCU [TheoBX 8 #SwitchBubble #StaticStem],111 nM,114 nM,116 nM,117 nM,95.9 nM
UGAUACCAGACUGAUACCAGCCAGUGAUGUUGGCUAAUCCAAGAAGGAGUCAAAGACUCCGGCCCUUGGCAGCAGUCUGGUAUCU [TheoBX 3 #SwitchBubble #StaticStem],117 nM,104 nM,111 nM,110 nM,109 nM
UGAUACCAGACUGAUACCAGCGAGUGAUGUUCGUUGAAAUCAGGGUCAAAGACCCUGUCUCGCCCUUGGCAGCAGUCUGGUAUCU [TheoBX 22 #SwitchBubble #StaticStem],690 nM,704 nM,829 nM,320 nM,785 nM
UGAUACCAGACUGAUACCAGCUAGUGAUGUUAGCUGAAAUCAGGGUCAAAGACCCUGUCUGGCCCUUGGCAGCAGUCUGGUAUCU [TheoBX 18 #SwitchBubble #StaticStem],83.2 nM,72.3 nM,76.2 nM,73.2 nM,71.2 nM
UGAUACCAGACUGAUACCAGCUAGUGAUGUUAGCUGAUCUAAGGACCGUCAAAGACGGCUAGCCCUUGGCAGCAGUCUGGUAUCU [TheoBX 13 #SwitchBubble #StaticStem],120 nM,105 nM,121 nM,130 nM,121 nM
UGAUAGCCAGUGAUGUUGGCAUAUACUGAAGGAGCGCGUGAAAACGCAGGUAGGUCGCAGUUCCUUGCCAAUUGAUCGAAAGAUC [#08 K4 Arginine A Exclusion],162 nM,200 nM,183 nM,207 nM,162 nM
UGAUAGGACAGAAGGAGCGGAAGUGAUGUUUCCAAAAGAUAUGGUCGACAAAGUCGACUUUUCCAGGUAGGUCGCUGUCCUAUCU [KL-XARG-B18],60.4 nM,90.1 nM,67.1 nM,84.1 nM,66.6 nM
UGAUAGGACAGAAGGAGCGGAAUGCUGUCCAAAAGGACAGCAAAUAUAACAGGAGUGAUGUUCCAGGUAGGUCGCUGUCCUAUCU [ArgBX 21 #SwitchBubble #StaticStem],246 nM,197 nM,214 nM,199 nM,187 nM
UGAUAGGACAGAAGGAGCGGAGGUCGUCAAAGACGACCAAUAACGUUGAUAGGAGUGAUGUUCCAGGUAGGUCGCUGUCCUAUCU [ArgBX 29 #SwitchBubble #StaticStem],147 nM,127 nM,121 nM,152 nM,95.8 nM
UGAUAGGACAGAAGGAGCGGUAGUGAUGUUACCAAAAGGUUAAGGUGUCAAAAGACACCCUGCCAGGUAGGUCGCUGUCCUAUCU,117 nM,98 nM,106 nM,89.9 nM,83.4 nM
UGAUAGGACAGAAGGAGCGGUAGUGAUGUUGCCAAAAGGGUAAGGUGUCAAAAGACACCCUACCAGGUAGGUCGCUGUCCUAUCU,83.9 nM,93.2 nM,84.6 nM,87 nM,83.4 nM
